Experimental data as given in patent US20120058906A1 (published 2012).
One block for each binder: values may come before it.

What was measured:
[1] = biological target: T1, rHuman Erythropoietin R/Fc Chimera, CF (R&D Systems Cat#963-ER) (human, UniProt P19235 25-250); assay: ECL (MSD Multi-Spot) binding assay, antigen spotted on plate; Fab 30 nM; blank spot 213
T1 construct: Bought Fc chimera; also called EPO R/Fc; Epo R; Fc part of the bought chimera not given
T1 sequence: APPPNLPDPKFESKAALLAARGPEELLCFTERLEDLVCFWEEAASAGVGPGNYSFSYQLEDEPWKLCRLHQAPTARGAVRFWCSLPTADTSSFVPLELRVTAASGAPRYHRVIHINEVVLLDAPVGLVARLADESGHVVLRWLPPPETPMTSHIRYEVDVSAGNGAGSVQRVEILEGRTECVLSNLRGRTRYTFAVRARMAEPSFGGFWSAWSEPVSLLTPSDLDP

[2] = biological target: T2, rHuman Notch-1/Fc Chimera, CF (R&D Systems Cat#3647-TK) (human, UniProt P46531 19-526); assay: as above
T2 construct: Bought Fc chimera; Fc part of the bought chimera not given

[3] = biological target: T3, rHuman CD44/Fc Chimera, CF (R&D Systems Cat#3660-CD) (human, UniProt P16070 21-220); assay: as above
T3 construct: Bought Fc chimera; Fc part of the bought chimera not given

[4] = biological target: T4, rHuman P-Cadherin/Fc Chimera, CF (R&D Systems Cat#861-PC) (human, UniProt P22223 108-654); assay: as above
T4 construct: Bought Fc chimera; also called CDH3; Fc part of the bought chimera not given

[5] = biological target: T5, Recombinant Human DLL4 (R&D Systems Cat#1506-D4/CF) (human, UniProt Q9NR61 27-524); assay: as above
T5 construct: Bought recombinant protein; also called delta-like protein 4; rHuman DLL4

[6] = biological target: T6, rHuman IGF-1 sR (insulin-like growth factor-1 soluble receptor), CF (R&D Systems Cat#391-GR) (human, UniProt P08069 31-932); assay: MSD ECL multi-spot, Fab 0.14 uM, blank 237
T6 construct: Bought soluble receptor; also called IGF-R1

[7] = biological target: T7, rHuman Notch-1/Fc Chimera, CF (R&D Systems Cat#3647-TK) (human, UniProt P46531 19-526); assay: MSD ECL multi-spot, Fab 0.14 uM, blank 237
T7 construct: Bought Fc chimera; Fc part of the bought chimera not given

[8] = biological target: T8, rHuman P-Cadherin/Fc Chimera, CF (R&D Systems Cat#861-PC) (human, UniProt P22223 108-654); assay: MSD ECL multi-spot, Fab 0.14 uM, blank 237
T8 construct: Bought Fc chimera; Fc part of the bought chimera not given

[9] = biological target: T9, rHuman EGF R/Fc Chimera, CF (R&D Systems Cat#344-ER) (human, UniProt P00533 25-645); assay: MSD ECL multi-spot, Fab 0.14 uM, blank 237
T9 construct: Bought Fc chimera; Fc part of the bought chimera not given

[10] = biological target: T10, rHuman HGF R/c-MET/Fc Chimera, CF (R&D Systems Cat#358-MT/CF) (human, UniProt P08581 25-932); assay: MSD ECL multi-spot, Fab 0.14 uM, blank 237
T10 construct: Bought Fc chimera; also called HGF R/Fc; Fc part of the bought chimera not given

[11] = biological target: T11, rHuman Erythropoietin R/Fc Chimera, CF (R&D Systems Cat#963-ER) (human, UniProt P19235 25-250); assay: MSD ECL multi-spot, Fab 0.14 uM, blank 237
T11 construct: Bought Fc chimera; also called EPO R/Fc; EPOR; Fc part of the bought chimera not given
T11 sequence: T1 sequence

[12] = biological target: T12, rHuman CD44/Fc Chimera, CF (R&D Systems Cat#3660-CD) (human, UniProt P16070 21-220); assay: MSD ECL multi-spot, Fab 0.14 uM, blank 237
T12 construct: Bought Fc chimera; Fc part of the bought chimera not given

[13] = biological target: T13, Recombinant Human DLL4 (R&D Systems Cat#1506-D4/CF) (human, UniProt Q9NR61 27-524); assay: MSD ECL multi-spot, Fab 0.14 uM, blank 237
T13 construct: Bought recombinant protein; also called rHuman DLL4; delta-like protein 4

[14] = biological target: T14, rHuman ErbB2/Fc Chimera, CF (R&D Systems Cat#1129-ER) (human, UniProt P04626 23-652); assay: MSD ECL multi-spot, Fab 0.14 uM, blank 237
T14 construct: Bought Fc chimera; also called HER2/neu; Fc part of the bought chimera not given

[15] = biological target: T7, rHuman Notch-1/Fc Chimera, CF (R&D …); assay: MSD ECL titration, Fab 2.3 nM, blank 234
[16] = biological target: T9, rHuman EGF R/Fc Chimera, CF (R&D …); assay: MSD ECL titration, Fab 2.3 nM, blank 234
[17] = biological target: T10, rHuman HGF R/c-MET/Fc Chimera, CF (R&D …); assay: MSD ECL titration, Fab 2.3 nM, blank 234
[18] = biological target: T11, rHuman Erythropoietin R/Fc Chimera, CF …; assay: MSD ECL titration, Fab 2.3 nM, blank 234
[19] = biological target: T12, rHuman CD44/Fc Chimera, CF (R&D Systems …); assay: MSD ECL titration, Fab 2.3 nM, blank 234
[20] = biological target: T13, Recombinant Human DLL4 (R&D Systems …); assay: MSD ECL titration, Fab 2.3 nM, blank 234
[21] = biological target: T14, rHuman ErbB2/Fc Chimera, CF (R&D …); assay: MSD ECL titration, Fab 2.3 nM, blank 234
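Also: blank spot per well as comparator with Hit at signal to blank ratio of 4 or more.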

ECL signal [1]: 325
ECL signal [2]: 425
ECL signal [3]: 484
ECL signal [4]: 440
ECL signal [5]: 736
B1: Fab VH6-1_IGHD3-3*01_IGHJ4*01 & V4-3_IGLJ4*01 (Fab, V domains shown)
VH: QVQLQQSGPGLVKPSQTLSLTCAISGDSVSSNSAAWNWIRQSPSRGLEWLGRTYYRSKWYNDYAVSVKSRITINPDTSKNQFSLQLNSVTPEDTAVYYCAREYYDFWSGYYTDYFDYWGQGTLVTVSS
VL: QPVLTQPTSLSASPGASARLTCTLRSGINLGSYRIFWYQQKPESPPRYLLSYYSDSSKHQGSGVPSRFSGSKDASSNAGILVISGLQSEDEADYYCMIWHSSASFVFGGGTQLIIL
notes: Tested as a Fab made in E. coli; also called IGHV6-1*01

ECL signal [6]: 663
ECL signal [7]: 614
ECL signal [8]: 423
ECL signal [9]: 823
ECL signal [10]: 848
ECL signal [11]: 693
ECL signal [12]: 515
ECL signal [13]: 19300
ECL signal [14]: 870
ECL signal [15]: 333
ECL signal [16]: 289
ECL signal [17]: 253
ECL signal [18]: 429
ECL signal [19]: 317
ECL signal [20]: 3060
ECL signal [21]: 291
B2: Fab VH1-46_IGHD6-6*01_IGHJ1*01 & L6_IGKJ1*01 (Fab, V domains shown)
VH: QVQLVQSGAEVKKPGASVKVSCKASGYTFTSYYMHWVRQAPGQGLEWMGIINPSGGSTSYAQKFQGRVTMTRDTSTSTVYMELSSLRSEDTAVYYCAREEYSSSSAEYFQHWGQGTLVTVSS
VL: not shown
notes: Expressed in E. coli as Fab: heavy chain with CH1 plus Flag and His tags from Plasmid A, kappa light chain constant region from Plasmid C; also called Fab No. 1
